How the values were obtained:
[1] = target: human triosephosphate isomerase K13M, catalytically inactive (hTPI^Δcat) (human); assay: crystal structure; sitting drops, 28-34% PEG2000 MME, 50 mM KBr; space group P212121, a dimer in the asymmetric unit; 1.7 Å
[2] = target: human triosephosphate isomerase M82T (hTPI^M82T) (human); assay: SEC; purified TPI diluted to 15 uM in mobile phase, 100 ul injected, elution monitored at 280 nm; peak areas integrated for the relative monomer and dimer populations; dimer to monomers

Substance	stoichiometry N [1]	percent dimer (dimer:monomer ratio of peak areas) [2] [%]
human triosephosphate isomerase K13M, catalytically inactive (hTPI^Δcat) (enzyme)	2	–
human triosephosphate isomerase M82T (hTPI^M82T) (enzyme)	–	5
